The values below come from US9382311.

The target in this experiment is T1, YU2 gp120 (HIV-1, UniProt P35961 32-498).
T1 construct: domain: gp120
As to the kind of experiment: ELISA (FIG. 3). (In general: In an ELISA, binding on a coated surface is turned into a signal by an enzyme label.)

B1: VRC-PG-04 (antibody, V domains shown)
VH: QVQLVQSGSGVKKPGASVRVSCWTSEDIFERTELIHWVRQAPGQGLEWIGWVKTVTGAVNFGSPDFRQRVSLTRDRDLFTAHMDIRGLTQGDTATYFCARQKFYTGGQGWYFDLWGRGTLIVVSS
VL: EIVLTQSPGTLSLSPGETASLSCTAASYGHMTWYQKKPGQPPKLLIFATSKRASGIPDRFSGSQFGKQYTLTITRMEPEDFARYYCQQLEFFGQGTRLEIR
notes: also called PGV04
Turning to B1, the binding result is “binds”.
